Ends that are not written are not given here.
Key:
Kv 1.6 = target: T1, Kv 1.6 (Rattus norvegicus, UniProt P17659); settings: rat clone; cited from earlier work
T1 construct: expressed in transfected cells; host or cells: Xenopus oocytes injected with RNA transcribed in vitro from the cDNA clone

Kv 1.3 = target: T2, Kv 1.3 (Rattus norvegicus, UniProt P15384); assay: [125I]ChTX binding to rat brain synaptic plasma membrane vesicles
T2 construct: from tissue; host or cells: rat brain synaptic plasma membrane vesicles
T2 sequence (P15384 whole entry): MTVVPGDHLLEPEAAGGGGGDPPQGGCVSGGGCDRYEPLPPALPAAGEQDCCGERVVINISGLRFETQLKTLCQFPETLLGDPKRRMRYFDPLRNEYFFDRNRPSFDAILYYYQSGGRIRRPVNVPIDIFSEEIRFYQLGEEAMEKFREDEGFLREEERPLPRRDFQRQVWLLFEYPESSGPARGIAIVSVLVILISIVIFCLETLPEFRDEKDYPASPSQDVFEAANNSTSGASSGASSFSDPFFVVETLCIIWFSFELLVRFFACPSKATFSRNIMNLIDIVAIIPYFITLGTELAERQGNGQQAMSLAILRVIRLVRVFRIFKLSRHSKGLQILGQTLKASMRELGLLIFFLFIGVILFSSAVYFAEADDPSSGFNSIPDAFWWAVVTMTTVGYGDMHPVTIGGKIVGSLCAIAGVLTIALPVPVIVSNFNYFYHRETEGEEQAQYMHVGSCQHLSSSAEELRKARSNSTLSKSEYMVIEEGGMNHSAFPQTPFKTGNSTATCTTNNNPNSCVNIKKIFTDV
Procedure: (§1) The potency of MgTX as an inhibitor of [^125 I]ChTX binding to Kv 1.3 was evaluated. The binding of [^125 I]ChTX to either rat brain synaptic plasma membrane vesicles (Kv 1.3 channel; Vazquez et al., J. Biol. Chem. 265, 15564, 1990) or bovine aortic smooth muscle sarcolemmal membranes (Maxi-K channel; Vazquez et al., J. Biol. Chem. 264, 20402, 1989) was determined as described. Briefly, membrane vesicles were incubated with [^125 I]ChTX in the presence or absence of other added agents, until equilibrium was achieved. Separation of bound from free ligand was accomplished by filtration through GF/C glass fiber filters (WHATMAN) that had been presoaked in 0.5% polyethyleneimine. Nonspecific binding was determined in the presence of 10 nM unlabeled ChTX. Data from saturation experiments were analyzed in a Scatchard representation to determine Kd and Bmax values. Triplicate samples were obtained for each experimental point and the data were averaged. The standard deviation of the mean was typically less than 2%. […] As an indication of selectivity, MgTX had no effect on [^125 I]ChTX binding to the Maxi-K channel in smooth muscle membranes at concentrations up to 10 nM.

Maxi-K channel = target: T3, Maxi-K channel (Bos taurus, UniProt Q28204); assay: [125I]ChTX binding to bovine aortic smooth muscle sarcolemmal membranes
T3 construct: from tissue; host or cells: bovine aortic smooth muscle sarcolemmal membranes
T3 sequence (Q28204 whole entry): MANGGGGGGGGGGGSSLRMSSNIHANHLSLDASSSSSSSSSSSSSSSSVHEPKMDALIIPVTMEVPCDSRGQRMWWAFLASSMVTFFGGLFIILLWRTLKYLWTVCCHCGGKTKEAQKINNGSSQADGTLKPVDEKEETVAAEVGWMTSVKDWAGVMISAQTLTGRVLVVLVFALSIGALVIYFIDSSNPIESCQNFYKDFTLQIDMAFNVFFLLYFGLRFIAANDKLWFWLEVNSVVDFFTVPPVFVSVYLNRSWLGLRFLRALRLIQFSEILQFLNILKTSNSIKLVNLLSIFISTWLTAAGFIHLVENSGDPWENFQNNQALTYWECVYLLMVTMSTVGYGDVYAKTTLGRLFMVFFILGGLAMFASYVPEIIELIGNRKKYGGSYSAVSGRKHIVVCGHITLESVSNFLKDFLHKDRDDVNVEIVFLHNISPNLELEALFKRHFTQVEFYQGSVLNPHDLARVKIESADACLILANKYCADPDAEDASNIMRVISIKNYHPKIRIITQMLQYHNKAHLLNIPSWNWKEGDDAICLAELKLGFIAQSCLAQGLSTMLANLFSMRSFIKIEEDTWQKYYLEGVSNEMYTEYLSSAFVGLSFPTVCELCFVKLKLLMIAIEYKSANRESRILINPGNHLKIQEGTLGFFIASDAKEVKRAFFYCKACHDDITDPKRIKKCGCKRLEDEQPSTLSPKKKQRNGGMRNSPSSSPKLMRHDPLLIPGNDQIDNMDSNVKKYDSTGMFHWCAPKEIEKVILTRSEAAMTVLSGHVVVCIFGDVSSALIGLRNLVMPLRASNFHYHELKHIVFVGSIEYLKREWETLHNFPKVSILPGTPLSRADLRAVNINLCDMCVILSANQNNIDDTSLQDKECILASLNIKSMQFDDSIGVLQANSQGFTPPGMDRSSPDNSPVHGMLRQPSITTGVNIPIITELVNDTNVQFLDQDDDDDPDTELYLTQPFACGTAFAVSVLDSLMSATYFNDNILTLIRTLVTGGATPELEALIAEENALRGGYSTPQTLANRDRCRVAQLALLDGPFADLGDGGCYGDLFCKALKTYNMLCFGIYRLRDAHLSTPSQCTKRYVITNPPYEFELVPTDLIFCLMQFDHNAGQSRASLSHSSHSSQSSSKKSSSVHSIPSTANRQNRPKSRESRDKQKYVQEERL
T3 sequence (Q28067 whole entry partner): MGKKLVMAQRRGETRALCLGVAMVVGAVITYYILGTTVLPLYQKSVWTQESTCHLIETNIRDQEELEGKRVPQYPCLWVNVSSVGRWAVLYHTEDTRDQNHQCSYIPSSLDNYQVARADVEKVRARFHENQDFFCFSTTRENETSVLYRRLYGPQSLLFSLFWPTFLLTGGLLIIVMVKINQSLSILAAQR
Procedure: as §1

[1] = target: T4, lymphocyte Kv 1.3 current (Homo sapiens, UniProt P22001); assay: Whole cell patch clamp of human peripheral T-lymphocytes; type: cell-based; settings: electrophysiology, Example 8
T4 construct: endogenous in cells; host or cells: purified human peripheral blood T lymphocytes
T4 sequence (P22001 whole entry): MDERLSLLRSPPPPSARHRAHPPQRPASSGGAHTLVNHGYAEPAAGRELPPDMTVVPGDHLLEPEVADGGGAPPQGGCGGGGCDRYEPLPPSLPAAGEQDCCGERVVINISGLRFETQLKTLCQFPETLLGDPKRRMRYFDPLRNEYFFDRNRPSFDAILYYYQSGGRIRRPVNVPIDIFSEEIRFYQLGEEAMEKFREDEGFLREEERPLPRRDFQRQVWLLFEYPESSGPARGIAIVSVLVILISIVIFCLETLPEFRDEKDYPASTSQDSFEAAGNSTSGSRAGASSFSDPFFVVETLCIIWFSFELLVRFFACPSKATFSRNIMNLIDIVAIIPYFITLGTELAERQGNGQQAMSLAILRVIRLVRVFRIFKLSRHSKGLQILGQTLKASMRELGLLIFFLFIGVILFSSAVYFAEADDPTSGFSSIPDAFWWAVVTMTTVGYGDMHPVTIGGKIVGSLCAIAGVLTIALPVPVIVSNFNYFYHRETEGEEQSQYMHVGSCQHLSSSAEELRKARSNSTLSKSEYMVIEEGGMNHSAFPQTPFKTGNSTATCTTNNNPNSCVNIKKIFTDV
Procedure: Ionic currents were recorded from human peripheral T-lymphocytes using the whole cell patch clamp technique described in Cahalan, M. and Neher, E., Meth. Enzymol. 207, 3, 1992. Purified human T cells were obtained as described in Leonard et al., Proc. Natl. Acad. Sci. U.S.A., 89, 10094, 1992, and recordings were carried out in a bath solution consisting of ^125 mM NaCl, 2.5 mM KCl, 1.0 mM CaCl2, 2.0 mM MgCl2, 10 mM HEPES (potassium salt), 10 mM glucose, 5 mM Na-pyruvate, and 0.05% BSA. The pH was adjusted to 7.2, and experiments were performed at room temperature (19°-22° C.). The intracellular (pipette) solution contained 140 mM K-glutamate, 1 mM MgCl2, 10 mM HEPES (potassium salt), and 0.1 mM EGTA. The pH was adjusted to 7.2. Patch pipettes were fabricated from DAGAN (Minneapolis, Minn.) LG-16 glass and had resistances of 2 to 8M.OMEGA.. Currents were measured using a DAGAN model 3900 patch clamp. Delivery of command voltages, data acquisition, and post-acquisition analysis were aided by a microcomputer running the Pclamp program suite (AXON INSTRUMENTS, Foster City, Calif.).
Methods for oocyte isolation and micro-injection were previously described in Goldin, Meth. Cell Biol, 36, 487, 1991, and Swanson and Folander, Meth. Enzymol., 207, 310, 1992. Currents expressed in oocytes were measured using a DAGAN model CA-1 two-electrode voltage clamp. Delivery of command voltages, data acquisition and post-acquisition analysis were aided by a microcomputer running the Pclamp program suite. The oocyte bathing solution consisted of 96 mM NaCl, 2.5 mM KCl, 1 mM MgCl2, 1.8 mM CaCl2, 10 mM HEPES, and 0.05% BSA. The pH was 7.2. All recordings were obtained at room temperature (19°-22° C.). The intracellular microelectrodes were fabricated from DAGAN LE-16 glass in a two-stage pull to a final resistance of 0.6 to 2M.OMEGA. and filled with 3M KCl. For both lymphocyte and oocyte experiments, peptides were diluted into the extracellular solution from 20 μM aqueous stock containing 100 mM NaCl. The presence of 0.05% BSA in the bath solution inhibited non-specific loss of dilute peptide toxins in the perfusion tubing.
Both native and recombinant MgTX were tested for their ability to block voltage gated K^+ channels. […] There was insufficient native toxin to carry out selectivity studies, so those were conducted using the recombinant material exclusively. […] The apparent IC50 for inhibition of the lymphocyte Kv 1.3 current is between 20 to 100 pM. […] As reported previously, MgTX has no effect on three different ChTX-sensitive, Ca^2+ -activated K^+ channels of lymphocytes, even at 100 nM (Leonard et al., Proc. Natl. Acad. Sci. U.S.A. 89, 10094, 1992).

T1 sequence (P17659 whole entry): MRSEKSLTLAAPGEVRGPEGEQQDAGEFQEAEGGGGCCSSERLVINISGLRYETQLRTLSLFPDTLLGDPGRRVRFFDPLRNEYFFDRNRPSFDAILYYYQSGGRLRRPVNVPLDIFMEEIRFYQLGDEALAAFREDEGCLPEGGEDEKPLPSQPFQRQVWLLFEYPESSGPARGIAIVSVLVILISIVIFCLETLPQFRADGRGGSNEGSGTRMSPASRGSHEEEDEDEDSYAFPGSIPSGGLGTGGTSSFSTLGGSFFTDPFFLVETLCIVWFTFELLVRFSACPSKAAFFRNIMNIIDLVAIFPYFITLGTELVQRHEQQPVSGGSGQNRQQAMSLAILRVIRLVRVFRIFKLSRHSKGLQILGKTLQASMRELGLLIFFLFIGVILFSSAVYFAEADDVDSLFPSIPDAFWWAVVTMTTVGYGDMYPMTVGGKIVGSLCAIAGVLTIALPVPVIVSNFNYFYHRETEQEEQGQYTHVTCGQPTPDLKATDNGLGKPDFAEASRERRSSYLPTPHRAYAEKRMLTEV

Substance | IC50 (Kv 1.6) [nM] | potency for inhibition of [125I]ChTX binding to brain membranes compared with native MgTX (Kv 1.3) | effect on ChTX binding to the Maxi-K channel (Maxi-K channel) | potency and selectivity as an inhibitor of Kv 1.3 compared with native peptide [1] | potency and selectivity as an inhibitor of Kv 1.3 compared with native peptide ([1]; listed as recombinant MgTX)
charybdotoxin [ChTX] | > 1000 | – | – | – | –
rMgTX: recombinant MgTX expressed in E. coli as T7 gene 9 fusion protein, cleaved with factor Xa; identical to native peptide (TIINVKCTSPKQCLPPCKAQFGQSAGAKCMNGKCKCYPH; ends and bridges not checked; cysteine pairing not given here; UniProt P40755 1-39, looked up) | – | same potency as native MgTX | did not affect | same potency and selectivity | identical results

From patent publication US5494895A, “Scorpion peptide margatoxin with immunosuppressant activity” (Merck & Co., Inc., priority 1993, dated 1996)
